The target in test [1] is T1, 5T4 (Homo sapiens, UniProt Q13641).
T1 sequence (Q13641 32-420): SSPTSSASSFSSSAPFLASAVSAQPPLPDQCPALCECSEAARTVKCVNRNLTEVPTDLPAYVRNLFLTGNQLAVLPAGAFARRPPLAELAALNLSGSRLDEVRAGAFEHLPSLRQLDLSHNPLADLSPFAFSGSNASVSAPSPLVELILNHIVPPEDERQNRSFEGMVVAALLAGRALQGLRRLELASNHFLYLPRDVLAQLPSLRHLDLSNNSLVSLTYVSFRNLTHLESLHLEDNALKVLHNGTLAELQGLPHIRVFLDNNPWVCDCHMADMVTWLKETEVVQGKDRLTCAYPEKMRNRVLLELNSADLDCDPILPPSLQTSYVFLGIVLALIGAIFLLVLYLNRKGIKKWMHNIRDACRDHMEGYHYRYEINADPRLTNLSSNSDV
Description: Non-overlapping epitope binding assay (SPR). The note with it: mouse antibody captured, 5T4 injected, then humanized antibody. As for the experimental part: To examine epitope binding of anti-5T4 bispecific antibody-drug conjugate parental monospecific antibodies, surface plasmon resonance (SPR) binding experiments were performed using Biacore™ 8K systems (Cytiva™). HBS-EP+ buffer (10 mM HEPES, 150 mM NaCl, 3 mM EDTA and 0.05% v/v Surfactant P20) was used as running buffer. Anti-mouse IgG antibodies from the mouse antibody capture kit (Cytiva) were coupled in active flow cells on a CM5 sensor chip using an amine coupling kit (Cytiva), whereas the reference cell was left blank. As the first step, mouse monospecific antibody Ab1 or Ab2 was injected over both cells on all experimental channels. Second, test article 5T4 or buffer was injected over both cells on the corresponding channel. Third, humanized monospecific antibody Ab1 or Ab2, or buffer, was injected over both cells on all experimental channels. After each binding cycle, the sensor chip was regenerated with 10 mM Glycine-HCl pH1.7. SPR signals (RU) were recorded in real-time and plotted against time to generate binding sensorgrams. Sensorgrams from multiple channels were overlaid using Biacore 8K Evaluation Software.
To confirm the non-overlapping epitope binding of the select monospecific antibody Nos. 1 and 2, a surface plasmon resonance (SPR) technology-based binding assay was performed. […]

For test [2], the target named is T2, recombinant human 5T4 protein (human, UniProt Q13641 32-355).
T2 construct: The ELISA protein was bought (Sino biologics and Biorbyt); also called recombinant 5T4 protein; trophoblast glycoprotein (TPBG)
T2 sequence: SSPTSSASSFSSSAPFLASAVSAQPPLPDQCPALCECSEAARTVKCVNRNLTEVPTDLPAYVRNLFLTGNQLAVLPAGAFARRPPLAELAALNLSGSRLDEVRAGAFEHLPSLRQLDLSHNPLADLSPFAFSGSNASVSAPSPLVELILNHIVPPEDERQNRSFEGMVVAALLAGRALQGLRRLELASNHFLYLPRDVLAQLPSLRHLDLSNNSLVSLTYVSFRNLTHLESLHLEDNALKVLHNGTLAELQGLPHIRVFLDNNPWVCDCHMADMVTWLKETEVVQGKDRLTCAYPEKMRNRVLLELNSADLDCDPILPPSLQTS
Description: optimized SPR (Biacore 8K), antibody captured on Protein A chip, recombinant 5T4 as analyte 0.02 to 5 µg/mL, 1:1 model. As to the method:
(§1) SPR kinetic experiments were performed on Biacore 8K systems (GE healthcare) with HBS-EP+ as running buffer. […] Capture level for each antibody was maintained between 50-100 RU. The final analyte binding level at the highest concentration was maintained below 50 RU. […] After each binding cycle, the sensor chip was regenerated with glycine solution (pH 1.5). The resulting sensorgrams were fitted with a one-to-one binding model to extract kinetic constants using Biacore 8K Evaluation Software.
On the technique in general: SPR reads the build-up and loss of mass on a sensor chip optically.

Test [3] deals with T2, recombinant human 5T4 protein. Description: SPR (Biacore 8K, optimized assay): antibody captured on a protein A chip, recombinant 5T4 injected at 0.02-5 µg/mL, one-to-one binding model. As for the experimental part: as §1
The target of test [4] is FcγRI (Abcam) (UniProt P12314). Nature of the test: SPR (Biacore 8K), antibody captured on Protein A chip, Fc receptor as analyte, 1:1 model.
Test [5] concerns the target FcγRIIIa (158V) (UniProt P08637). The test is described as above.
The target of test [6] is T2, recombinant human 5T4 protein. Description: SPR (Biacore 8K), antibody captured on Protein A chip, 5T4 as analyte 0.625-10 nM, 1:1 model. As for the experimental part: (§2) The binding affinity of anti-5T4 bispecific antibody-drug conjugate monospecific and bispecific antibodies to 5T4 was measured by Biacore kinetic experiments using a Protein A sensor chip on Biacore 8K (Cytiva) with HBS-EP+ as running buffer. […] After each binding cycle, the sensor chip was regenerated with glycine solution, pH 1.5. Signals from reference surface and an ensemble of buffer blank injections were subtracted from binding signals to correct for nonspecific binding and injection artifacts. The corrected experimental signals were globally fitted to a 1:1 binding model to extract kinetic constants, including association rate constant (ka), dissociation rate constant (kd), and equilibrium dissociation constant (KD), using the Biacore 8K Evaluation Software.

For test [7] the target is unchanged. Nature of the test: SPR (Biacore 8K): antibody captured on a protein A chip, 5T4 protein injected at 0.625-10 nM, 1:1 binding model. As to the method: as §2
The target is the same in test [8]. Description: SPR (Biacore 8K): antibody captured on a protein A chip, 5T4 protein injected at 0.625-10 nM, 1:1 binding model; FIG. 4C on D00005 prints the same value as 7.42e-11. As for the experimental part: as §2

Sequence of FcγRIIIa (158V) (P08637 17-208 F176V): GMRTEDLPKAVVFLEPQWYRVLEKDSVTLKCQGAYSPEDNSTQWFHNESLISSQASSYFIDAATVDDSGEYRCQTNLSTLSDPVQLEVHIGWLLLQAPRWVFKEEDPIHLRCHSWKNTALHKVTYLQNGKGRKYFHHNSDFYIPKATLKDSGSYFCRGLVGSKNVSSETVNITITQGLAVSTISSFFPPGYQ
Sequence of FcγRI (Abcam) (P12314 16-288 limits assumed): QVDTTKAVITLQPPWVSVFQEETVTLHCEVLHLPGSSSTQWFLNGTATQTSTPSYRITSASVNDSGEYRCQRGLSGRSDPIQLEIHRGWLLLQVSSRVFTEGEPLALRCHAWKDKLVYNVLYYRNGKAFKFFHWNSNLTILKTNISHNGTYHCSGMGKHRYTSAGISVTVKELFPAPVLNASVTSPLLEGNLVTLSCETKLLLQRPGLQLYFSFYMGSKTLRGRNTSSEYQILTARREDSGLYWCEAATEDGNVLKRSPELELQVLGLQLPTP

B1: mouse antibody No. 1 ((m)Ab1) (antibody, V domains shown)
VH: EVQLQQSGPDLVKPGASVKISCKASGYSFTDYYMHWVKQSHGKSLEWIGRVSPNNGATNTNQKFKDKAILTVDKSSSTAYMDLRSLTSEDSAVYYCARSTMITSYYFDYWGQGTTLTVSS
VL: SIVMTQTPKFLLVSAGDRITITCKASQSVSTDVAWYQQKPGQSPKLLIYFASDRYTGVPDRFTGSGNGTDFTFTITTVQAEDLAIYFCQQDYSSPPTFGGGTKLEIK
notes: Mouse IgG, captured by anti-mouse IgG antibodies; also called mouse Ab1; mouse monospecific antibody Ab1
What is called Kd is the concentration at which binding is half-saturated. For orientation: koff means the rate constant with which the complex falls apart. In general, kon refers to the rate constant with which the complex forms. Turning to B1, the “epitope binding on 5T4” value in test [1] was “non-overlapping epitopes”. In addition, in test [2], the Kd worked out at 1.43 nM. Moreover, in test [3], the koff was determined as 0.000421 s⁻¹ and the kon is 259000 M⁻¹ s⁻¹.

B2: humanized antibody No. 1 ((h)Ab1) (antibody, V domains shown)
VH: QVQLVQSGAEVKKPGASVKVSCKASGYSFTDYYMHWVRQAPGQGLEWMGRVSPNNGATNTNQKFKDRVTMTRDTSISTAYMELRSLRSEDTAVYYCARSTMITSYYFDYWGQGTLVTVSS
VL: DIVMTQSPSFLSVSVGDRVTITCKASQSVSTDVAWYQQKPGQAPKLLIYFASDRYTGVPDRFSGSGSGTDFTFTISSLQAEDVAVYYCQQDYSSPPTFGGGTKLEIK
notes: The FcγR assay calls it 'without Fc mutations'; also called humanized Ab1; humanized monospecific antibody Ab1
B2: the Kd in test [4] was 3.73 nM; in test [5] it was 50.5 nM; in test [6] it was 0.198 nM. Besides, the koff in test [7] came out at 0.000248 s⁻¹. Also, the kon in test [7] amounted to 1.25e+06 M⁻¹ s⁻¹.

B3: mouse antibody No. 2 ((m)Ab2) (antibody, V domains shown)
VH: EVKLLESGGGLVQPGGSLKLSCAASGFDFSRYWMTWVRQAPGKGLEWIGEINPDSRTINYTPSLKDKFIISRDNAKNTLYLHMSKVRSEDTALYYCARPDHDYNPYYFNYWGQGTTLTVSS
VL: DIVLTQSPASLAVSLGQRATISCRPSQSVSTSSNSYIHWYQQKPGQPPKLLIKYASNLESGVPARFSGSGSGTDFTLNIHPVEEEDTATYYCQQSWEIPLTFGAGTKLELK
notes: Mouse IgG; also called mouse Ab2; mouse monospecific antibody Ab2
For the molecule B3, the “epitope binding on 5T4” value in test [1] was “non-overlapping epitopes”. Besides, the Kd in test [2] worked out at 1.34 nM. In addition, in test [3], the koff turned out to be 0.000273 s⁻¹ and the kon stood at 203000 M⁻¹ s⁻¹.

B4: humanized antibody No. 2 ((h)Ab2) (antibody, V domains shown)
VH: EVQLLESGGGLVQPGGSLRLSCAASGFDFSRYWMTWVRQAPGKGLEWVSEINPDSRTINYTPSLKDRFTISRDNAKNTLYLQMNSLRAEDTAVYYCARPDHDYNPYYFNYWGQGTTVTVSS
VL: DIVLTQSPASLAVSLGQRATISCRPSQSVSTSSNSYIHWYQQKPGQPPKLLIKYASNLESGVPARFSGSGSGTDFTLTISPVEAEDTATYYCQQSWEIPLTFGGGTKLEIK
notes: also called humanized Ab2; humanized monospecific antibody Ab2
Turning to B4, the dissociation constant Kd in test [6] came to 0.32 nM. Also, in test [7], the koff worked out at 0.000283 s⁻¹ and the kon was determined as 884000 M⁻¹ s⁻¹.

B5: Bs3-HL biparatopic anti-5T4 antibody (Bs3 orientation, scFv in the VH-VL orientation) (bispecific antibody, human IgG1, kappa)
heavy: QVQLVQSGAEVKKPGASVKVSCKASGYSFTDYYMHWVRQAPGQGLEWMGRVSPNNGATNTNQKFKDRVTMTRDTSISTAYMELRSLRSEDTAVYYCARSTMITSYYFDYWGQGTLVTVSSASTKGPSVFPLAPSSKSTSGGTAALGCLVKDYFPEPVTVSWNSGALTSGVHTFPAVLQSSGLYSLSSVVTVPSSSLGTQTYICNVNHKPSNTKVDKRVEPKSCDKTHTCPPCPAPEFLGGPCVFLFPPKPKDTLMISRTPEVTCVVVDVSHEDPEVKFNWYVDGVEVHNAKTKPREEQYNSTYRVVSVLTVLHQDWLNGKEYKCKVSNKALPAPIEKTISKAKGQPREPQVYTLPPSREEMTKNQVSLTCLVKGFYPSDIAVEWESNGQPENNYKTTPPVLDSDGSFFLYSKLTVDKSRWQQGNVFSCSVMHEALHAHYTQKSLSLSPGKGGGGSGGGGSGGGGSEVQLLESGGGLVQPGGSLRLSCAASGFDFSRYWMTWVRQAPGKCLEWVSEINPDSRTINYTPSLKDRFTISRDNAKNTLYLQMNSLRAEDTAVYYCARPDHDYNPYYFNYWGQGTTVTVSSGGGGSGGGGSGGGGSGGGGSDIVLTQSPASLAVSLGQRATISCRPSQSVSTSSNSYIHWYQQKPGQPPKLLIKYASNLESGVPARFSGSGSGTDFTLTISPVEAEDTATYYCQQSWEIPLTFGCGTKLEIK
light: DIVMTQSPSFLSVSVGDRVTITCKASQSVSTDVAWYQQKPGQAPKLLIYFASDRYTGVPDRFSGSGSGTDFTFTISSLQAEDVAVYYCQQDYSSPPTFGGGTKLEIKRTVAAPSVFIFPPSDEQLKSGTASVVCLLNNFYPREAKVQWKVDNALQSGNSQESVTEQDSKDSTYSLSSTLTLSKADYEKHKVYACEVTHQGLSSPVTKSFNRGEC
notes: The heavy chain is Ab1 heavy chain (IgG1), linker, then Ab2 scFv (VH-linker-VL); Bs3-HL is described as the form without FCA, so its real Fc may have L, S and N at those positions; also called bispecific antibody in the Bs3-HL orientation; Bispecific 5T4-BS3 antibody
On to B5, for which the values for the Kd in test [6], in test [3] and in test [8] were 0.742 nM, 0.00363 nM and 0.0742 nM, respectively.

B6: Bs3-HL biparatopic anti-5T4 antibody conjugated to MMAE (Example 4) (bispecific antibody, human IgG1, kappa)
heavy: QVQLVQSGAEVKKPGASVKVSCKASGYSFTDYYMHWVRQAPGQGLEWMGRVSPNNGATNTNQKFKDRVTMTRDTSISTAYMELRSLRSEDTAVYYCARSTMITSYYFDYWGQGTLVTVSSASTKGPSVFPLAPSSKSTSGGTAALGCLVKDYFPEPVTVSWNSGALTSGVHTFPAVLQSSGLYSLSSVVTVPSSSLGTQTYICNVNHKPSNTKVDKRVEPKSCDKTHTCPPCPAPEFLGGPCVFLFPPKPKDTLMISRTPEVTCVVVDVSHEDPEVKFNWYVDGVEVHNAKTKPREEQYNSTYRVVSVLTVLHQDWLNGKEYKCKVSNKALPAPIEKTISKAKGQPREPQVYTLPPSREEMTKNQVSLTCLVKGFYPSDIAVEWESNGQPENNYKTTPPVLDSDGSFFLYSKLTVDKSRWQQGNVFSCSVMHEALHAHYTQKSLSLSPGKGGGGSGGGGSGGGGSEVQLLESGGGLVQPGGSLRLSCAASGFDFSRYWMTWVRQAPGKCLEWVSEINPDSRTINYTPSLKDRFTISRDNAKNTLYLQMNSLRAEDTAVYYCARPDHDYNPYYFNYWGQGTTVTVSSGGGGSGGGGSGGGGSGGGGSDIVLTQSPASLAVSLGQRATISCRPSQSVSTSSNSYIHWYQQKPGQPPKLLIKYASNLESGVPARFSGSGSGTDFTLTISPVEAEDTATYYCQQSWEIPLTFGCGTKLEIK
light: DIVMTQSPSFLSVSVGDRVTITCKASQSVSTDVAWYQQKPGQAPKLLIYFASDRYTGVPDRFSGSGSGTDFTFTISSLQAEDVAVYYCQQDYSSPPTFGGGTKLEIKRTVAAPSVFIFPPSDEQLKSGTASVVCLLNNFYPREAKVQWKVDNALQSGNSQESVTEQDSKDSTYSLSSTLTLSKADYEKHKVYACEVTHQGLSSPVTKSFNRGEC
modifications: monomethyl auristatin E (MMAE) conjugated; attachment residues, chain and drug-to-antibody ratio not stated for this experiment
notes: Antibody-drug conjugate of Bs3-HL; also called bispecific antibody in the Bs3-HL orientation conjugated to MMAE; bispecific antibody with conjugated MMAE
Take B6: in test [3], the Kd was 0.0159 nM, the koff came out at 5.99e-06 s⁻¹ and the on-rate constant (kon) worked out at 376000 M⁻¹ s⁻¹.

Values taken from US20260124314A1, “ANTl-5T4 ANTIGEN BINDING DOMAINS, ANTIBODY-DRUG CONJUGATES AND METHODS OF USE THEREOF” (Salubris Biotherapeutics, Inc., priority 2023, published 2026).
